According to patent US20090060916A1 (published 2009):
Values joined by “and” are separate entries in the source; they are usually repeats but may differ in a detail not shown here. Equal values may be shown once.

Experiments:
[1] = molecular target: T1, human IL-13 (human, UniProt P35225 35-146, biotinylated on the Biacore chip); assay: cell-based or functional assay
[2] = molecular target: variant IL-13 (R130Q) (human), P35225; assay: cell-based or functional assay
[3] = molecular target: T1, human IL-13; assay: IL-13 receptor alpha2 RBA, competition
Protocol: (§1) The plate was incubated for seven hours before being read in the 8200 cellular detection system (Applied Biosystems).

[4] = molecular target: T1, human IL-13; assay: IL-13 receptor alpha2 RBA, competition; remark: listed apart in the source
Protocol: as §1

[5] = molecular target: T1, human IL-13; assay: cell-based or functional assay; remark: listed apart in the source
[6] = molecular target: T1, human IL-13; assay: assay not named ('Potency IC50')
[7] = molecular target: T1, human IL-13; assay: IL-13 receptor binding assay by the legend; IL-13 sandwich ELISA by paragraph 465
[8] = molecular target: T1, human IL-13; assay: cell-based or functional assay; remark: listed apart in the source
[9] = molecular target: T2, cynomolgous IL-13 (cynomolgous, UniProt Q0PW92 19-132, The Biacore assay used biotinylated cIL-13 according to our card. The biotin cannot be carried in the letters.); assay: cell-based or functional assay
[10] = molecular target: T1, human IL-13; assay: Biacore SPR, biotinylated human IL-13 on SA chip
Protocol: (§2) 50 to 100 ul of the diluted supernatant was injected (kininject) at 50 ul/min flow rate, followed by a 5 minute dissociation phase. Association and dissociation off-rates and constants were calculated using BIAevaluation software v4.1 (Biacore).

[11] = molecular target: T1, human IL-13; assay: IL-13 sandwich ELISA, competition with coating antibody
Protocol: A MAXISORP™ plate (high protein binding ELISA plate, Nunc, Denmark) was coated overnight with 2.5 μg/ml coating antibody (Module Set, Bender MedSystems, Vienna, Austria), then washed once with 0.05% (v/v) Tween 20 in PBS before blocking with 0.5% (w/v) BSA 0.05% (v/v) Tween 20 in PBS. […] The plate was then incubated with TMB substrate (KPL, Gaithersburg, USA), and the reaction was stopped by the addition of HCl and the absorbance read at 450 nm.

[12] = molecular target: T2, cynomolgous IL-13; assay: Biacore SPR, biotinylated cynomolgous IL-13 on SA chip
Protocol: as §2

[13] = molecular target: T1, human IL-13; assay: Biacore SPR, IL-13 surface
[14] = molecular target: T3, human IL-4 (human, UniProt P05112 25-153, biotinylated in the receptor binding assay and on the Biacore chip); assay: DOM9 RBA (IL-4 RBA)
T3 construct: also called interleukin-4; biotinylated IL-4
T3 sequence (looked up): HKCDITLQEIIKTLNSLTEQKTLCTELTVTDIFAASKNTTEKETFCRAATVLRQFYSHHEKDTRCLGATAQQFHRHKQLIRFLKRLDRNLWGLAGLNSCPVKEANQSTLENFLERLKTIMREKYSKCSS
Text: (§3) The wells were washed three times with 0.1% (v/v) Tween 20 in PBS, followed by three washes with PBS, before blocking with 2% (w/v) BSA in PBS. […] The reaction was stopped by the addition of HCl and the absorbance read at 450 nm.

[15] = molecular target: T3, human IL-4; assay: DOM9 RBA (IL-4 RBA); remark: listed apart in the source
[16] = molecular target: T4, rhesus IL-4 (rhesus, UniProt P51492 25-153); assay: inferred from TF-1 proliferation with rhesus IL-4
T4 sequence (looked up): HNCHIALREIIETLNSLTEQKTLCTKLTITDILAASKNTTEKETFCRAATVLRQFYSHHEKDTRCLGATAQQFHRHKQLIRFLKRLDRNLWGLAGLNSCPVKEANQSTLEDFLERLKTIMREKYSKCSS
Protocol: (§4) The mixture was incubated for 72 hours at 37° C. 5% CO₂. […] 96® reagent (colorometric reagent for determining viability, Promega, Madison, USA) was then added and the number of cells per well was quantified by measuring the absorbance at 490 nm.
(§5) A dose-response of the dAb will determine the ND50 in this set up.

[17] = molecular target: T5, cynomolgous IL-4 (cynomolgous, UniProt P79339 25-153); assay: inferred from TF-1 proliferation with cynomolgous IL-4
T5 construct: also called Cyno IL-4
T5 sequence: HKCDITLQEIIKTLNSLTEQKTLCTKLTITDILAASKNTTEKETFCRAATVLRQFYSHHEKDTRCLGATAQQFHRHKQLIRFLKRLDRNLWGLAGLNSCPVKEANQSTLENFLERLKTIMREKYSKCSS
Protocol: as §4, §5

[18] = molecular target: T3, human IL-4; assay: IL-4 RBA: ELISA, IL-4R/Fc coated, biotinylated IL-4
Text: as §3

[19] = molecular target: T3, human IL-4; assay: screening of the affinity maturation output; IL-4 RBA and cell assay
[20] = molecular target: T3, human IL-4; assay: Biacore SPR, biotinylated IL-4 on SA chip, co-inject
Protocol: Analytes were passed over the antigen-coated flow-cell, with in-line referencing against a blank flow-cell, at a flow rate of 30 μl/min in HBS-EP running buffer (Biacore). The first dAb was injected, followed immediately by injection of the second dAb using the Biacore's co-inject function.

[21] = molecular target: T1, human IL-13; assay: IL-13 RBA
[22] = molecular target: T3, human IL-4; assay: IL-4 RBA: ELISA, IL-4R/Fc coated, biotinylated IL-4; remark: listed apart in the source
Text: as §3

[23] = molecular target: T1, human IL-13; assay: IL-13 receptor binding assay (receptor chain not stated)
[24] = molecular target: T3, human IL-4; assay: cell-based or functional assay
[25] = molecular target: T3, human IL-4; assay: cell-based or functional assay; remark: listed apart in the source

T1 sequence (P35225 35-146 limits assumed): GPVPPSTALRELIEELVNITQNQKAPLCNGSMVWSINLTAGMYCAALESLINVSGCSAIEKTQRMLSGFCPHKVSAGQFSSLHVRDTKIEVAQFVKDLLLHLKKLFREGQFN
T2 sequence (Q0PW92 entry or part of it limits assumed, form in doubt): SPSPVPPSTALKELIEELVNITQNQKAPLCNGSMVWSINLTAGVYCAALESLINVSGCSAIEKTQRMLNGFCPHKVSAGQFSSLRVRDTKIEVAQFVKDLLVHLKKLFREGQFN
Sequence of variant IL-13 (R130Q) (human), P35225 (P35225 35-146, stated change not applied): as the sequence (P35225 35-146 limits assumed) above

B1: DOM10-53-316 (other)
VH: GVQLLESGGGLVQPGGSLRLSCAASGFIFAWYDMGWARQAPGKGLEWVSSIDWHGEVTYYADSVKGRFTISRDNSKNTLYLQMNSLRAEDTAVYYCATAEDEPGYDYWGQGTLVTVSS
notes: VH dAb
- IC50, TF-1 proliferation with human IL-13 [1]: 0.39 nM
- IC50, TF-1 proliferation with variant IL-13 (R130Q) [2]: 0.52 nM
- IC50 [3]: 2 nM
- IC50 [4]: 1.2 nM

B2: DOM10-53-344 (other)
VH: GVQLLESGGGLVQPGGSLRLSCAASGFIFAWYDMGWVRQAPGKGLEWVSSIDWHGEVTYYADSVKGRFTISRDNSKNTLYLQMNSLRAEDTAVYYCATAEDEPGYDYWGQGTLVTVSS
notes: VH dAb
- ND50, IL-13 induced TF-1 cell proliferation [5]: 100 nM
- IC50 [6]: 0.1 nM
- IC50 [7]: 0.04 nM

B3: DOM10-53-474 (other)
VH: GVQLLESGGGLVQPGGSLRLSCAASGFTFAWYDMGWVRQAPGKGLEWVSSIDWHGEVTYYADSVKGRFTISRDNSKNTLYLQMNSLRAEDTAVYYCATAEDEPGYDYWGQGTLVTVSS
notes: VH dAb
- EC50, HEK293 STAT6 SEAP reporter assay, hIL-13 [8]: 0.63 nM
- EC50, HEK293 STAT6 SEAP reporter assay, cIL-13 [9]: 11.1 nM
- Kd [10]: 0.028 nM
- EC50 [11]: 0.023 nM
- Kd [12]: 2 nM

B4: DOM10-53-386 (other)
VH: GVQLLESGGGLVQPGGSLRLSCAASGFIFAWYDMGWVRQAPGKGLEWVSSIDWHGKITYYADSVKGRFTISRDNSKNTLYLQMNSLRAEDTAVYYCATAEDEPGYDYWGQGTLVTVSS
notes: VH dAb
- binding result [13]: binds

B5: DOM9-155-78 (other)
VL: DIQMTQSPSSLSASVGDRVTITCRASRHIGDWLHWYQQKPGKAPKLLIAWASTLDSGVPSRFSGSGSGTDFTLTISSLQPEDFATYYCLQEGWGPPTFGQGTKVEIKR
notes: Vk dAb
- IC50 [14]: 0.41 nM
- IC50 [15]: 0.456 nM
- binding result [16]: binds

B6: DOM9-155-25 (other)
VL: DIQMTQSPSSLSASVGDRVTITCRASRPISDWLHWYQQKPGKAPKLLIAWASTLDSGVPSRFSGSGSGTDFTLTISSLQPEDFATYYCLQEGWGPPTFGQGTKVEIKR
notes: Vk dAb
- binding result [16]: binds
- binding result [17]: binds
- IC50 [18]: 0.73 nM and 1 nM

B7: DOM9-155-77 (other)
VL: DIQMTQSPSSLSASVGDRVTITCRASRHISDWLHWYQQKPGKAPKLLIPWASGLWSGVPSRFSGSGSGTDFTLTISSLQPEDFATYYCLQEGWGPPTFGQGTKVEIKR
notes: Vk dAb
- binding result [16]: binds
- binding result [19]: binds

B8: DOM9-155-1 (other)
VL: DIQMTQSPSSLSASVGDRVTITCRASLDIGDWLHWYQQKPGKAPKLLIGWGSGLQSGVPSRFSGSGSGTDFTLTISSLQPEDFATYYCLQEGWGPPTFGQGTKVEIKR
notes: Vk dAb
- binding result [20]: binds

B9: DOM10-176-535 (other)
VL: DIQMTQSPSSLSASVGDRVTITCRASQWIGPYLNWYQQKPGKAPKPLIYMGYWAPSGVPSRFSGSGSGTDFTLTISSLQPEDFATYYCQQDLYPPFTFGQGTKVEIKR
notes: Vk dAb
- IC50 [21]: ~0.5 nM
- ND50, IL-13 induced TF-1 cell proliferation [5]: 0.77 nM
- IC50, TF-1 proliferation with human IL-13 [1]: 6 nM
- IC50, TF-1 proliferation with variant IL-13 (R130Q) [2]: 7.8 nM
- IC50 [4]: 7.9 nM
- IC50 [11]: 1 nM

B10: DOM9-112-210 (other)
VH: EVQLLESGGGLVQPGGSLRLSCAASGFTFRNFGMGWVRQAPGKGLEWVSWIISSGTETYYADSVKGRFTISRDNSKNTLYLQMNSLRAEDTAVYYCAKSLGRFDYWGQGTLVTVSS
notes: VH dAb
- IC50 [15]: 0.391 nM
- IC50 [18]: 0.144 nM

B11: PEGylated DOM9-112 (AST) DOM10-53-343 (bispecific antibody)
chain: EVQLLESGGGLVQPGGSLRLSCAASGFTFRNYGMAWVRQAPGKGLEWVSWIDASGTETYYADSVKGRFTISRDNSKNTLYLQMNSLRAEDTAVYYCAKSLGRFDYWGQGTLVTVSSASTEVQLLESGGGLVQPGGSLRLSCAASGFIFAWYDMGWARQAPGKGLEWVSSIDWHGEVTYYADSVKGRFTISRDNSKNTLYLQMNSLRAEDTAVYYCATAEDEPGYDYWGQGTLVTVSSC
modifications: 40K PEG2-MAL on the C-terminal cysteine
notes: in-line fusion of two VH dAbs made in Pichia pastoris; also called dual specific ligand
- IC50 [22]: 13 nM
- IC50 [23]: 0.31 nM

B12: DOM9-44-502 (other)
VL: DIQMTQSPSSLSASVGDRVTITCRASQNINFWLRWYQQKPGKAPTLLIYDASRSQSGVPSRFSGSGSGTDFTLTISSLQPEDFATYYCQQDLMPPYTFGQGTKVEIKR
notes: Vk dAb
- average inhibition of HDM induced PBMC proliferation, 100 nM dAb, responding donors [24]: 38%
- ND50, IL-4 induced TF-1 cell proliferation [25]: 4.5 nM
- IC50 [22]: 4 nM
- IC50 [18]: 5.5 nM and 8.6 nM and 4.1 nM and 3.6 nM

B13: DOM10-275-78 (other)
VH: EVQLLESGGGLVQPGGSLRLSCVASGFTFDVAEMDWVRQAPGKGLEWVSTISPSRRGTYYADSVKGRFTISRDNSKNTLYLQMNSLRAEDTAVYYCAKAYTGRSLWGPGTLVTVSS
notes: VH dAb
- EC50, HEK293 STAT6 SEAP reporter assay, hIL-13 [8]: 2.5 nM
- EC50, HEK293 STAT6 SEAP reporter assay, cIL-13 [9]: 1.4 nM
- Kd [10]: 0.072 to 0.1 nM
- Kd [12]: 0.32 to 0.75 nM

B14: DOM9-112 (ASTKGPS) DOM10-53-344 (bispecific antibody)
chain: EVQLLESGGGLVQPGGSLRLSCAASGFTFRNYGMAWVRQAPGKGLEWVSWIDASGTETYYADSVKGRFTISRDNSKNTLYLQMNSLRAEDTAVYYCAKSLGRFDYWGQGTLVTVSSASTKGPSGVQLLESGGGLVQPGGSLRLSCAASGFIFAWYDMGWVRQAPGKGLEWVSSIDWHGEVTYYADSVKGRFTISRDNSKNTLYLQMNSLRAEDTAVYYCATAEDEPGYDYWGQGTLVTVSS
notes: in-line fusion of two VH dAbs; also called dual specific ligand
- IC50 [22]: ~1 nM
- IC50 [7]: 0.12 nM
